From PMC4601640, “Stability of the Human Hsp90-p50^Cdc37 Chaperone Complex against Nucleotides and Hsp90 Inhibitors, and the Influence of Phosphorylation by Casein Kinase 2” (Molecules, 2015)

B3: human full-length p50^Cdc37 (residues 1-378) (natural protein, UniProt Q16543 1-378, looked up)
chain: MVDYSVWDHIEVSDDEDETHPNIDTASLFRWRHQARVERMEQFQKEKEELDRGCRECKRKVAECQRKLKELEVAEGGKAELERLQAEAQQLRKEERSWEQKLEEMRKKEKSMPWNVDTLSKDGFSKSMVNTKPEKTEEDSEEVREQKHKTFVEKYEKQIKHFGMLRRWDDSQKYLSDNVHLVCEETANYLVIWCIDLEVEEKCALMEQVAHQTIVMQFILELAKSLKVDPRACFRQFFTKIKTADRQYMEGFNDELEAFKERVRGRAKLRIEKAMKEYEEEERKKRLGPGGLDPVEVYESLPEELQKCFDVKDVQMLQDAISKMDPTDAKYHMQRCIDSGLWVPNSKASEAKEGEEAGPGDPLLEAVPKTGDEKDVSV
notes: p50 Cdc37, human, full length, residues 1-378; Eluted as a dimer in size-exclusion chromatography; source: tag cleaved with PreScission protease

What was measured:
Conditions in all cases: both partners purified
GST-p50^Cdc37 = biological target: T1, GST-p50^Cdc37 (human, UniProt Q16543 1-378); assay: ELISA; GST-p50^Cdc37 (4 µM) immobilised on glutathione-coated plates; His6-Hsp90 (4 µM) pre-incubated with nucleotides and/or inhibitors in 5% DMSO, detected with anti-His6; 50 mM HEPES pH 7.5, 150 mM NaCl, 10 mM MgCl2, 0.05% Tween-20, 0.1% BSA; room temperature
T1 construct: p50 Cdc37, human, full length, residues 1-378, in pGEX6P-1; also called GST-tagged p50^Cdc37; source: E. coli BL21 (DE3), purified (glutathione sepharose, size exclusion); not shown: GST, N-terminal, kept
T1 sequence (looked up): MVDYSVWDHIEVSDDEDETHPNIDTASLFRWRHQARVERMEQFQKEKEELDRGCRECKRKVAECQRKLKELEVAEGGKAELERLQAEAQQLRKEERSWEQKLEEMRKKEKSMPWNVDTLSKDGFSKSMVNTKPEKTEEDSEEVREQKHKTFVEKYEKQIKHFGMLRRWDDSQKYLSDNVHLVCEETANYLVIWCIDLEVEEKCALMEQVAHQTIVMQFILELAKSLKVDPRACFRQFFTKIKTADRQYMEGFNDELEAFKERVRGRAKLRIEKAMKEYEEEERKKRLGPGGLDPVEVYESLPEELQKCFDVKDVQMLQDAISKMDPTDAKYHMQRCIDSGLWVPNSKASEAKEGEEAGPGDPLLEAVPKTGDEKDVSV

[1] = biological target: B3; assay: ITC; p50^Cdc37 (200 µM) titrated into Hsp90 (20 µM); 50 mM HEPES pH 7.5, 10 mM MgCl2, 30 °C
human full-length Hsp90β [2] = biological target: T2, human full-length Hsp90β (human, UniProt P08238 1-724); assay: as above
T2 construct: Hsp90β, human, full length, subcloned from T47D cell line cDNA into pET28a; Eluted as a dimer in size-exclusion chromatography; No step that removes the His6 tag is described; the tag is detected in the ELISA; also called hHsp90β-FL; His6-Hsp90

[3] = biological target: T3, CK2-phosphorylated human full-length Hsp90β (human, UniProt P08238 1-724, phosphoserine at 255 (shown by Western blot); Ser226 named as a CK2 site, its phosphorylation could not be verified); assay: as above
T3 construct: Hsp90β, human, full length, phosphorylated by CK2α; only pSer255 was checked; also called (p)Hsp90; h(p)Hsp90β-FL; source: E. coli BL21 Star (DE3), purified, then phosphorylated in vitro with purified CK2α and ATP

human full-length Hsp90β [4] = biological target: T2, human full-length Hsp90β; assay: SEC; analytical Superdex200 10/300 GL, room temperature, 0.3 mL/min; 85 µM protein in 50 mM HEPES pH 7.5, 50 mM KCl, 5 mM MgCl2, 1 mM DTT; fractions on SDS-PAGE

T3 sequence (P08238 whole entry): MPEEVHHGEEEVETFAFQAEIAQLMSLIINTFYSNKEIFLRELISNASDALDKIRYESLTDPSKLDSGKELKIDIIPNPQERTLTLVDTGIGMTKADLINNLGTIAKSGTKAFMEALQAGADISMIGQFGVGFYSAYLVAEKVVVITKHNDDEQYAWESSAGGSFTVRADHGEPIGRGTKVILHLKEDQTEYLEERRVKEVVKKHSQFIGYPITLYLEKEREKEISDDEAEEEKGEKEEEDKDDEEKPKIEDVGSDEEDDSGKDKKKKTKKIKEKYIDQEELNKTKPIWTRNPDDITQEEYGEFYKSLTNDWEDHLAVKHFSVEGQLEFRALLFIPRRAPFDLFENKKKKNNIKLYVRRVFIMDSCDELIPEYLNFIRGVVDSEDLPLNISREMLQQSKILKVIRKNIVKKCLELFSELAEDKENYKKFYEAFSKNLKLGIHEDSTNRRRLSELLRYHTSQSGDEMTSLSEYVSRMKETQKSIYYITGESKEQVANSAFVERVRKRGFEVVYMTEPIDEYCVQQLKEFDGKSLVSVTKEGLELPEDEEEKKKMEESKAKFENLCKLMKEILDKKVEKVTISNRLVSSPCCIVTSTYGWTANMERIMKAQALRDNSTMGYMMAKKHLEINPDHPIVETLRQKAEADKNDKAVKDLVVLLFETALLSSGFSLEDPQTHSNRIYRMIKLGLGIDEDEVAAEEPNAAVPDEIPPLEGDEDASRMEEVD

B1: human Hsp90α (1-732 Δ226-283) (natural protein)
chain: not shown
notes: Hsp90α, human, residues before the deleted section 226-283 of the construct 1-732; four glycine residues that replace the deleted section 226-283; Hsp90α, human, residues after the deleted section 226-283 of the construct 1-732; Gene synthesised by GeneArt; pET28a; also called ΔHsp90α
- binding result (GST-p50^Cdc37): binds

B2: human Hsp90β (1-724 Δ220-275) (natural protein)
chain: not shown
notes: Hsp90β, human, residues before the deleted charged linker 220-275 of the construct 1-724; four glycine residues that replace the deleted section 220-275; Hsp90β, human, residues after the deleted charged linker 220-275 of the construct 1-724; Gene synthesised by GeneArt, codon optimised for E. coli; pET28a; also called ΔHsp90; ΔHsp90β
- Kd [1]: 1.1 µM

Binder: B3
- Kd (human full-length Hsp90β [2]): 1.2 µM
- Kd [3]: 1.7 µM
- stoichiometry N (human full-length Hsp90β [4]): 1

B4: CK2-phosphorylated human full-length p50^Cdc37 (natural protein, UniProt Q16543 1-378, looked up)
chain: MVDYSVWDHIEVSDDEDETHPNIDTASLFRWRHQARVERMEQFQKEKEELDRGCRECKRKVAECQRKLKELEVAEGGKAELERLQAEAQQLRKEERSWEQKLEEMRKKEKSMPWNVDTLSKDGFSKSMVNTKPEKTEEDSEEVREQKHKTFVEKYEKQIKHFGMLRRWDDSQKYLSDNVHLVCEETANYLVIWCIDLEVEEKCALMEQVAHQTIVMQFILELAKSLKVDPRACFRQFFTKIKTADRQYMEGFNDELEAFKERVRGRAKLRIEKAMKEYEEEERKKRLGPGGLDPVEVYESLPEELQKCFDVKDVQMLQDAISKMDPTDAKYHMQRCIDSGLWVPNSKASEAKEGEEAGPGDPLLEAVPKTGDEKDVSV
modifications: phosphoserine at 13 (shown by Western blot)
notes: p50 Cdc37, human, full length, residues 1-378, phosphorylated by CK2α; also called (p)p50^Cdc37; source: E. coli Tuner (DE3), purified, then phosphorylated in vitro with purified CK2α and ATP
- Kd (human full-length Hsp90β [2]): 5.1 µM
- Kd [3]: 8.6 µM

B5: human N-terminal Hsp90β (1-219) (domain or fragment)
chain: not shown
notes: Hsp90β, human, N-terminal domain, residues 1-219; Gene synthesised by GeneArt; pET28a; also called N-Hsp90; Hsp90β-N
- Kd [1]: 4.4 µM
